Source: the supplement of paper PMC11316812
± gives the standard deviation of the averaged measurements.

Assays:
MCF7 = assay: percentage of EdU-negative (G0-arrested) nuclei per well, 72 h; higher = more G0 arrest; conditions: reference: sequence is the full UniProt precursor, the tested protein was the secreted form or ectodomain
hTERT-HMEC = assay: as above; conditions: reference: sequence is the full UniProt precursor, the tested protein was the secreted form or ectodomain
[1] = protein concentration 0.0225 µM
[2] = protein concentration 0.03125 µM
[3] = protein concentration 0.3125 µM
[4] = protein concentration 0.01675 µM
[5] = protein concentration 0.1675 µM
[6] = protein concentration 0.0262857 µM
[7] = protein concentration 0.262857 µM
[8] = protein concentration 0.02657 µM
[9] = protein concentration 0.2657 µM
[10] = protein concentration 0.009215 µM
[11] = protein concentration 0.09215 µM
[12] = protein concentration 0.0070625 µM
[13] = protein concentration 0.070625 µM
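Also: secreted proteins added to cultured cells, EdU pulse at the end, nuclei found by Hoechst imaging, EdU status from nuclear versus surrounding ring intensity ratio, PBS as neutral control.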

“MFHSSAMVNSHRKPMFNIHRGFYCLTAILPQICICSQFSVPSSYHFTEDPGAFPVATNGERFPWQELRLPSVVIPLHYDLFVHPNLTSLDFVASEKIEVLVSNATQFIILHSKDLEITNATLQSEEDSRYMKPGKELKVLSYPAHEQIALLVPEKLTPHLKYYVAMDFQAKLGDGFEGFYKSTYRTLGGETRILAVTDFEPTQARMAFPCFDEPLFKANFSIKIRRESRHIALSNMPKVKTIELEGGLLEDHFETTVKMSTYLVAYIVCDFHSLSGFTSSGVKVSIYASPDKRNQTHYALQASLKLLDFYEKYFDIYYPLSKLDLIAIPDFAPGAMENWGLITYRETSLLFDPKTSSASDKLWVTRVIAHELAHQWFGNLVTMEWWNDIWLKEGFAKYMELIAVNATYPELQFDDYFLNVCFEVITKDSLNSSRPISKPAETPTQIQEMFDEVSYNKGACILNMLKDFLGEEKFQKGIIQYLKKFSYRNAKNDDLWSSLSNSCLESDFTSGGVCHSDPKMTSNMLAFLGENAEVKEMMTTWTLQKGIPLLVVKQDGCSLRLQQERFLQGVFQEDPEWRALQERYLWHIPLTYSTSSSNVIHRHILKSKTDTLDLPEKTSWVKFNVDSNGYYIVHYEGHGWDQLITQLNQNHTLLRPKDRVGLIHDVFQLVGAGRLTLDKALDMTYYLQHETSSPALLEGLSYLESFYHMMDRRNISDISENLKRYLLQYFKPVIDRQSWSDKGSVWDRMLRSALLKLACDLNHAPCIQKAAELFSQWMESSGKLNIPTDVLKIVYSVGAQTTAGWNYLLEQYELSMSSAEQNKILYALSTSKHQEKLLKLIELGMEGKVIKTQNLAALLHAIARRPKGQQLAWDFVRENWTHLLKKFDLGSYDIRMIISGTTAHFSSKDKLQEVKLFFESLEAQGSHLDIFQTVLETITKNIKWLEKNLPTLRTWLMVNT [Q6P179]” was tested, and the “percentage of EdU-negative” value (MCF7; [1]) was 25.63 ± 0.041%, the “percentage of EdU-negative” value (MCF7; protein concentration 0.225 µM) was 25.5 ± 0.38% and the “percentage of EdU-negative” value (hTERT-HMEC; [1]) was 4.8 ± 0.71%. The “percentage of EdU-negative” value (hTERT-HMEC; protein concentration 0.225 µM) was 5.45 ± 0.3%.
For “MFHVSFRYIFGLPPLILVLLPVASSDCDIEGKDGKQYESVLMVSIDQLLDSMKEIGSNCLNNEFNFFKRHICDANKEGMFLFRAARKLRQFLKMNSTGDFDLHLLKVSEGTTILLNCTGQVKGRKPAALGEAQPTKSLEENKSLKEQKKLNDLCFLKRLLQEIKTCWNKILMGTKEH”, the “percentage of EdU-negative” value (MCF7; [1]) was 27.6 ± 3.5%, the “percentage of EdU-negative” value (MCF7; [2]) was 26 ± 0.34% and the “percentage of EdU-negative” value (MCF7; protein concentration 0.225 µM) was 25.3 ± 1.1%. The “percentage of EdU-negative” value (MCF7; [3]) was 25.9 ± 0.41%, the “percentage of EdU-negative” value (hTERT-HMEC; [1]) was 5.22 ± 1% and the “percentage of EdU-negative” value (hTERT-HMEC; [2]) was 5.03 ± 1.4%. The “percentage of EdU-negative” value (hTERT-HMEC; protein concentration 0.225 µM) was 6.63 ± 0.069% and the “percentage of EdU-negative” value (hTERT-HMEC; [3]) was 4.47 ± 0.49%.
In the case of “MFIKVMFGAGCSVLVNTSCRLVNLTAHLRQKAGLPPDATIALLAEDGNLVSLEEDLKEGASRAQTMGNSLLKERAIYVLVRIIKGEDMASTRYESLLENLDDHYPELAEELRRLSGLSSVGHNWRKRMGTRRGRHEQSPTSRPRKGPD [Q8WYQ4]”, the “percentage of EdU-negative” value (MCF7; [2]) is reported as 28 ± 1.6%, the “percentage of EdU-negative” value (MCF7; [3]) is reported as 25.79 ± 0.035% and the “percentage of EdU-negative” value (hTERT-HMEC; [2]) is reported as 5.45 ± 0.84%. The “percentage of EdU-negative” value (hTERT-HMEC; [3]) was 5.68 ± 0.37%.
For “MFKCWSVVLVLGFIFLESEGRPTKEGGYGLKSYQPLMRLRHKQEKNQESSRVKGFMIQDGPFGSCENKYCGLGRHCVTSRETGQAECACMDLCKRHYKPVCGSDGEFYENHCEVHRAACLKKQKITIVHNEDCFFKGDKCKTTEYSKMKNMLLDLQNQKYIMQENENPNGDDISRKKLLVDQMFKYFDADSNGLVDINELTQVIKQEELGKDLFDCTLYVLLKYDDFNADKHLALEEFYRAFQVIQLSLPEDQKLSITAATVGQSAVLSCAIQGTLRPPIIWKRNNIILNNLDLEDINDFGDDGSLYITKVTTTHVGNYTCYADGYEQVYQTHIFQVNVPPVIRVYPESQAREPGVTASLRCHAEGIPKPQLGWLKNGIDITPKLSKQLTLQANGSEVHISNVRYEDTGAYTCIAKNEAGVDEDISSLFVEDSARKTLANILWREEGLGIGNMFYVFYEDGIKVIQPIECEFQRHIKPSEKLLGFQDEVCPKAEGDEVQRCVWASAVNVKDKFIYVAQPTLDRVLIVDVQSQKVVQAVSTDPVPVKLHYDKSHDQVWVLSWGTLEKTSPTLQVITLASGNVPHHTIHTQPVGKQFDRVDDFFIPTTTLIITHMRFGFILHKDEAALQKIDLETMSYIKTINLKDYKCVPQSLAYTHLGGYYFIGCKPDSTGAVSPQVMVDGVTDSVIGFNSDVTGTPYVSPDGHYLVSINDVKGLVRVQYITIRGEIQEAFDIYTNLHISDLAFQPSFTEAHQYNIYGSSSTQTDVLFVELSSGKVKMIKSLKEPLKAEEWPWNRKNRQIQDSGLFGQYLMTPSKDSLFILDGRLNKLNCEITEVEKGNTVIWVGDA [Q8N475]”, the “percentage of EdU-negative” value (MCF7; [4]) was 24.2 ± 4.5%, the “percentage of EdU-negative” value (MCF7; [5]) was 26.4 ± 1.8% and the “percentage of EdU-negative” value (hTERT-HMEC; [4]) was 4.72 ± 1.2%. The “percentage of EdU-negative” value (hTERT-HMEC; [5]) was 6.54 ± 0.16%.
“MFLKAVVLTLALVAVAGARAEVSADQVATVMWDYFSQLSNNAKEAVEHLQKSELTQQLNALFQDKLGEVNTYAGDLQKKLVPFATELHERLAKDSEKLKEEIGKELEELRARLLPHANEVSQKIGDNLRELQQRLEPYADQLRTQVSTQAEQLRRQLTPYAQRMERVLRENADSLQASLRPHADELKAKIDQNVEELKGRLTPYADEFKVKIDQTVEELRRSLAPYAQDTQEKLNHQLEGLTFQMKKNAEELKARISASAEELRQRLAPLAEDVRGNLRGNTEGLQKSLAELGGHLDQQVEEFRRRVEPYGENFNKALVQQMEQLRQKLGPHAGDVEGHLSFLEKDLRDKVNSFFSTFKEKESQDKTLSLPELEQQQEQQQEQQQEQVQMLAPLES” was tested, and the “percentage of EdU-negative” value (MCF7; [6]) was 22.7 ± 1.3%, the “percentage of EdU-negative” value (MCF7; [7]) was 27 ± 1.5% and the “percentage of EdU-negative” value (hTERT-HMEC; [6]) was 5.7 ± 1%. For the same sequence, the “percentage of EdU-negative” value (hTERT-HMEC; [7]) was 7.022 ± 0.041%.
With “MFPFYSCWRTGLLLLLLAVAVRESWQTEEKTCDLVGEKGKESEKELALVKRLKPLFNKSFESTVGQGSDTYIYIFRVCREAGNHTSGAGLVQINKSNGKETVVGRLNETHIFNGSNWIMLIYKGGDEYDNHCGKEQRRAVVMISCNRHTLADNFNPVSEERGKVQDCFYLFEMDSSLACSPEISHLSVGSILLVTFASLVAVYVVGGFLYQRLVVGAKGMEQFPHLAFWQDLGNLVADGCDFVCRSKPRNVPAAYRGVGDDQLGEESEERDDHLLPM” the “percentage of EdU-negative” value (MCF7; [2]) was 25.21 ± 0.13%, the “percentage of EdU-negative” value (MCF7; [3]) was 24.8 ± 1.1% and the “percentage of EdU-negative” value (hTERT-HMEC; [2]) was 5.26 ± 0.29%. For the same sequence, the “percentage of EdU-negative” value (hTERT-HMEC; [3]) was 5.43 ± 0.57%.
In the case of “MFSTKALLLAGLISTALAGPWANICAGKSSNEIRTCDRHGCGQYSAQRSQRPHQGVDILCSAGSTVYAPFTGMIVGQEKPYQNKNAINNGVRISGRGFCVKMFYIKPIKYKGPIKKGEKLGTLLPLQKVYPGIQSHVHIENCDSSDPTAYL”, the “percentage of EdU-negative” value (MCF7; [1]) is reported as 23.8 ± 1.3%, the “percentage of EdU-negative” value (MCF7; protein concentration 0.225 µM) is reported as 26.3 ± 0.79% and the “percentage of EdU-negative” value (hTERT-HMEC; [1]) is reported as 4.82 ± 1.7%. For the same sequence, the “percentage of EdU-negative” value (hTERT-HMEC; protein concentration 0.225 µM) was 7.53 ± 0.43%.
For “MFTIKLLLFIVPLVISSRIDQDNSSFDSLSPEPKSRFAMLDDVKILANGLLQLGHGLKDFVHKTKGQINDIFQKLNIFDQSFYDLSLQTSEIKEEEKELRRTTYKLQVKNEEVKNMSLELNSKLESLLEEKILLQQKVKYLEEQLTNLIQNQPETPEHPEVTSLKTFVEKQDNSIKDLLQTVEDQYKQLNQQHSQIKEIENQLRRTSIQEPTEISLSSKPRAPRTTPFLQLNEIRNVKHDGIPAECTTIYNRGEHTSGMYAIRPSNSQVFHVYCDVISGSPWTLIQHRIDGSQNFNETWENYKYGFGRLDGEFWLGLEKIYSIVKQSNYVLRIELEDWKDNKHYIEYSFYLGNHETNYTLHLVAITGNVPNAIPENKDLVFSTWDHKAKGHFNCPEGYSGGWWWHDECGENNLNGKYNKPRAKSKPERRRGLSWKSQNGRLYSIKSTKMLIHPTDSESFE [Q9Y5C1]”, the “percentage of EdU-negative” value (MCF7; [8]) was 25.5 ± 1.9%, the “percentage of EdU-negative” value (MCF7; [9]) was 25.9 ± 2.1% and the “percentage of EdU-negative” value (hTERT-HMEC; [8]) was 4.63 ± 0.83%. For the same sequence, the “percentage of EdU-negative” value (hTERT-HMEC; [9]) was 6.34 ± 0.5%.
For “MFWKLSLSLFLVAVLVKVAEARKNRPAGAIPSPYKDGSSNNSERWQHQIKEVLASSQEALVVTERKYLKSDWCKTQPLRQTVSEEGCRSRTILNRFCYGQCNSFYIPRHVKKEEESFQSCAFCKPQRVTSVLVELECPGLDPPFRLKKIQKVKQCRCMSVNLSDSDKQ [Q9H772]”, the “percentage of EdU-negative” value (MCF7; [10]) was 22.3 ± 1.6%, the “percentage of EdU-negative” value (MCF7; [11]) was 27.2 ± 0.92% and the “percentage of EdU-negative” value (hTERT-HMEC; [10]) was 5.28 ± 0.078%. The “percentage of EdU-negative” value (hTERT-HMEC; [11]) was 5.14 ± 0.38%.
With “MGAAARLSAPRALVLWAALGAAAHIGPAPDPEDWWSYKDNLQGNFVPGPPFWGLVNAAWSLCAVGKRQSPVDVELKRVLYDPFLPPLRLSTGGEKLRGTLYNTGRHVSFLPAPRPVVNVSGGPLLYSHRLSELRLLFGARDGAGSEHQINHQGFSAEVQLIHFNQELYGNFSAASRGPNGLAILSLFVNVASTSNPFLSRLLNRDTITRISYKNDAYFLQDLSLELLFPESFGFITYQGSLSTPPCSETVTWILIDRALNITSLQMHSLRLLSQNPPSQIFQSLSGNSRPLQPLAHRALRGNRDPRHPERRCRGPNYRLHVDGVPHGR” the “percentage of EdU-negative” value (MCF7; protein concentration 0.021 µM) was 25.5 ± 1.3%, the “percentage of EdU-negative” value (MCF7; protein concentration 0.21 µM) was 24.9 ± 0.45% and the “percentage of EdU-negative” value (hTERT-HMEC; protein concentration 0.021 µM) was 4.83 ± 0.27%. The “percentage of EdU-negative” value (hTERT-HMEC; protein concentration 0.21 µM) was 7.53 ± 1.3%.
“MGAARLLPNLTLCLQLLILCCQTQGENHPSPNFNQYVRDQGAMTDQLSRRQIREYQLYSRTSGKHVQVTGRRISATAEDGNKFAKLIVETDTFGSRVRIKGAESEKYICMNKRGKLIGKPSGKSKDCVFTEIVLENNYTAFQNARHEGWFMAFTRQGRPRQASRSRQNQREAHFIKRLYQGQLPFPNHAEKQKQFEFVGSAPTRRTKRTRRPQPLT” was tested, and the “percentage of EdU-negative” value (MCF7; [12]) was 26.1 ± 0.65%, the “percentage of EdU-negative” value (MCF7; [13]) was 25.6 ± 3.5% and the “percentage of EdU-negative” value (hTERT-HMEC; [12]) was 4.842 ± 0.02%. The “percentage of EdU-negative” value (hTERT-HMEC; [13]) was 5.5 ± 0.25%.
